The text below walks through data of patent US20240376200A1 (Seagen, published 2024).

Like-named read-outs stand apart in the source and are kept apart here.

Data set [1] addresses T1, recombinant human CD47 (human, UniProt Q08722 19-139, limits assumed).
T1 construct: also called recombinant CD47 antigen
Put plainly: saturation binding ELISA. (In general: ELISA stands for enzyme-linked immunosorbent assay.)

Data set [2] has as its target T1, recombinant human CD47. Briefly: saturation binding ELISA. The source holds these as a separate data set.
A short description of data set [3]: circular dichroism thermal denaturation at 222 nm. (In general: Circular dichroism is the unequal absorption of left and right circularly polarised light.)
Data set [4] addresses T2, Coil 10 heavy chain peptide for CD studies (VelB L24I).
T2 construct: also called Coil 10 (L24I); L24I VelB variant
T2 peptide: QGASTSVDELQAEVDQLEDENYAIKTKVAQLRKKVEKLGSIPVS
Put plainly: circular dichroism thermal denaturation at 222 nm, 150 µM total peptide.

The target in data set [5] is T3, Vel heavy chain peptide for CD studies (VelB).
T3 construct: also called VelB (heavy chain) peptide; VelB1
T3 peptide: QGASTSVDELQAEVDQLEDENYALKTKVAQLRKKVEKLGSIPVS
Described as above.

In data set [6] the target is T4, Coil 148 heavy chain peptide for CD studies (VelB L24I/V28L).
T4 construct: also called Coil 148 (L24I/V28L)
T4 peptide: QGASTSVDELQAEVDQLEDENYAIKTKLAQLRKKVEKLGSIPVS
The description is as above.

In data set [7] the target is recombinant Antigen 1 (recombinant Ab1 target; recombinant integrin αvβ6 antigen). Briefly: saturation binding ELISA.
Data set [8] deals with Antigen 1 (Ab1 target) expressed on HEK293 / HEK-293F cells. Put plainly: saturation binding FACS, HEK293 cells.
Data set [9] concerns the target T1, recombinant human CD47. Briefly: saturation binding ELISA. The source holds these as a separate data set.

Sequence of Antigen 1 (Ab1 target) expressed on HEK293 / HEK-293F cells (P06756 31-1048, chain 1 of 2): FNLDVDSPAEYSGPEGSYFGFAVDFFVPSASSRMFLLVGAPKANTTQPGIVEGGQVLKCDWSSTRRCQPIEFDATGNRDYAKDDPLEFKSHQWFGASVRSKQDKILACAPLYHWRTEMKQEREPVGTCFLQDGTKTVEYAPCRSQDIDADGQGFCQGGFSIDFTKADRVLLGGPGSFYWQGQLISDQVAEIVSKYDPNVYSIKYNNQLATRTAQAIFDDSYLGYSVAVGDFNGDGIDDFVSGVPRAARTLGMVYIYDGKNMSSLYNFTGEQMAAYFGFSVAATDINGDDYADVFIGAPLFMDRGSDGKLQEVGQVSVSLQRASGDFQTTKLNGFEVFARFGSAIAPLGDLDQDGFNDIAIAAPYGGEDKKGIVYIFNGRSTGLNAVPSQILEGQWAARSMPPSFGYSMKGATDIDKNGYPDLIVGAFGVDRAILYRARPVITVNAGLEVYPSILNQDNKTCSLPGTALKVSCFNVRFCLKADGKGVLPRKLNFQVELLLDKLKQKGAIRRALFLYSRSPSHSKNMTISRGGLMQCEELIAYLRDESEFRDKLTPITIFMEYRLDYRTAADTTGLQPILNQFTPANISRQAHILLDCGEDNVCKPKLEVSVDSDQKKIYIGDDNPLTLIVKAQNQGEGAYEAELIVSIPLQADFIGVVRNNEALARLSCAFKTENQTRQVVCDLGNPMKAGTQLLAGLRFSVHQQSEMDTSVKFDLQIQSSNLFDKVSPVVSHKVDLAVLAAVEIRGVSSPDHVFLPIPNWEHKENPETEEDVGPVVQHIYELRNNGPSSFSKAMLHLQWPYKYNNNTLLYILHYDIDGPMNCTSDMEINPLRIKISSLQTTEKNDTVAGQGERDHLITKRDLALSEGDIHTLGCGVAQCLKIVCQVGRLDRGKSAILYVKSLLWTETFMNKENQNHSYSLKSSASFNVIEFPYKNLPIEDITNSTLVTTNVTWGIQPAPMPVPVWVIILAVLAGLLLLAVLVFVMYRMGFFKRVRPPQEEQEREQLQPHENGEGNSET
Sequence of Antigen 1 (Ab1 target) expressed on HEK293 / HEK-293F cells (P18564 22-788, chain 2 of 2, further chain): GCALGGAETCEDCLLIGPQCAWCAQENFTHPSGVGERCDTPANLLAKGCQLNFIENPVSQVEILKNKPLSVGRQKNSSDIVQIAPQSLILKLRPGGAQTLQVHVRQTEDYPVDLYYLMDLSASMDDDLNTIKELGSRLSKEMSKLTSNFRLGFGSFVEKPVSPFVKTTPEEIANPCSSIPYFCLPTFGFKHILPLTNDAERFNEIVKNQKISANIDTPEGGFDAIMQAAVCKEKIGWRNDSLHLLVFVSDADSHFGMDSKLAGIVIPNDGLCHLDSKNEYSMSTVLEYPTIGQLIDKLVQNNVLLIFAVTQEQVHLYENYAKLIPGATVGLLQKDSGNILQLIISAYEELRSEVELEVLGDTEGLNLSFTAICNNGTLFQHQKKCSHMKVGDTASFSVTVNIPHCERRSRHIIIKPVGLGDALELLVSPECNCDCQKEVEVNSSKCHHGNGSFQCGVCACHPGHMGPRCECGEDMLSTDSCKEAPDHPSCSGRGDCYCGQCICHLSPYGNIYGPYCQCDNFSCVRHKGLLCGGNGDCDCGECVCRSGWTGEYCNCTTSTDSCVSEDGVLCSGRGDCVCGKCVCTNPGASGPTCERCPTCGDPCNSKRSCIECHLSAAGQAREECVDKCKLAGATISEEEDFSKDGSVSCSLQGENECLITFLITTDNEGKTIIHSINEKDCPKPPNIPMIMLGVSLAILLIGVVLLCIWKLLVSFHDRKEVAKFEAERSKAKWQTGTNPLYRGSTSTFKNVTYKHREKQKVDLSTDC
Sequence of recombinant Antigen 1 (recombinant Ab1 target; recombinant integrin αvβ6 antigen) (P06756 31-992, chain 1 of 2): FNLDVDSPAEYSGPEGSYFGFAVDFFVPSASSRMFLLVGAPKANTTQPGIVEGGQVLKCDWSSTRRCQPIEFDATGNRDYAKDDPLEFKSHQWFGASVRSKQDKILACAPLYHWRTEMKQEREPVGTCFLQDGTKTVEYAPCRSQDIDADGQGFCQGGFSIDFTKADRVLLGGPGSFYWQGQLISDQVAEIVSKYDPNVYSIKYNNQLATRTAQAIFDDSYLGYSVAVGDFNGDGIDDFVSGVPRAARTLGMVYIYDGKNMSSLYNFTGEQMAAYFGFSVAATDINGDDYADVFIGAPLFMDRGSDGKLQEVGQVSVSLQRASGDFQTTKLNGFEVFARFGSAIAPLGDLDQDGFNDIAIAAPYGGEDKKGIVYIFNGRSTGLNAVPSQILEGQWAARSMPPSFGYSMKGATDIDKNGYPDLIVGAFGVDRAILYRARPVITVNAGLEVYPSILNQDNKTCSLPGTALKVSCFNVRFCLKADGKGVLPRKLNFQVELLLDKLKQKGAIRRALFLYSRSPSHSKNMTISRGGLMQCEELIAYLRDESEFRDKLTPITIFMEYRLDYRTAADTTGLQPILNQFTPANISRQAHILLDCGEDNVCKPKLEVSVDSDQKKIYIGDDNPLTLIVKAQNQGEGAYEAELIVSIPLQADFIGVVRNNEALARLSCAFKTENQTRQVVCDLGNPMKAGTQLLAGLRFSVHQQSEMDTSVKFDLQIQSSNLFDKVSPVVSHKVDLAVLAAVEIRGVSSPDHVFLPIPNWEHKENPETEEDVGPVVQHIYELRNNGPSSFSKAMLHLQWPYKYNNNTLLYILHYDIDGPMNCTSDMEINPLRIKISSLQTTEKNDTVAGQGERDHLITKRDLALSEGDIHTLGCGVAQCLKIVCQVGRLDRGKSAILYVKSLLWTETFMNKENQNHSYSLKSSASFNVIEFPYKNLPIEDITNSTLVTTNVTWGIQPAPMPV
Sequence of recombinant Antigen 1 (recombinant Ab1 target; recombinant integrin αvβ6 antigen) (P18564 22-709, chain 2 of 2, further chain): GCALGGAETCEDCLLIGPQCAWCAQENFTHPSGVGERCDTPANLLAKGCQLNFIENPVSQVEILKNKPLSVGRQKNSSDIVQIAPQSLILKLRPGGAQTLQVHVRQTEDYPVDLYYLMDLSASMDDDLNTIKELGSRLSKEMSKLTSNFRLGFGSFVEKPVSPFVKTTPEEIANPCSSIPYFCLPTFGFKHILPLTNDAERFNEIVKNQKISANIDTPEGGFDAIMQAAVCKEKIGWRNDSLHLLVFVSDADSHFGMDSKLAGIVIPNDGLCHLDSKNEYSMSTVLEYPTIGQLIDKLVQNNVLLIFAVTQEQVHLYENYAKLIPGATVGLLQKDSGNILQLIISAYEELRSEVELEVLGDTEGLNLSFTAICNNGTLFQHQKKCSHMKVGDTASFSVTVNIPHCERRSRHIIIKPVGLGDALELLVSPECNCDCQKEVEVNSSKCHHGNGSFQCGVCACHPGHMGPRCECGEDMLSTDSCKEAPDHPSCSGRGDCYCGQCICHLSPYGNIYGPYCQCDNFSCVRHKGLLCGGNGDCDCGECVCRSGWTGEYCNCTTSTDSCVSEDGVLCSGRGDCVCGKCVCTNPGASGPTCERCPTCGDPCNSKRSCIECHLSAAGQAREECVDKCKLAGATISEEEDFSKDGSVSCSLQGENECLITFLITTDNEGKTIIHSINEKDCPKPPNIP

B1: hB6H12.3 (unmasked anti-CD47 antibody) (antibody, V domains shown)
VH: EVQLLESGGGLVQPGGSLRLSCAASGFTFSGYGMSWVRQAPGKRLEWVATITSGGTYTYYPDSVKGRFTISRDNSKNTLYLQMNSLRAEDTAIYFCARSLAGNAMDYWGQGTLVTVSS
VL: EIVMTQSPDFQSVTPKEKVTLTCRASQTISDYLHWYQQKPDQSPKLLIKFASQSISGVPSRFSGSGSGSDFTLTINSLEAEDAATYYCQNGHGFPRTFGQGTKLEIKR
With B1, the EC50 in data set [1] and in data set [2] was 2.55 nM each time.

B2: Vel-IPV-hB6H12.3 (wild-type Vel mask, Coil 1) (antibody, V domains shown)
VH: EVQLLESGGGLVQPGGSLRLSCAASGFTFSGYGMSWVRQAPGKRLEWVATITSGGTYTYYPDSVKGRFTISRDNSKNTLYLQMNSLRAEDTAIYFCARSLAGNAMDYWGQGTLVTVSS
VL: EIVMTQSPDFQSVTPKEKVTLTCRASQTISDYLHWYQQKPDQSPKLLIKFASQSISGVPSRFSGSGSGSDFTLTINSLEAEDAATYYCQNGHGFPRTFGQGTKLEIK
With B2, in data set [1], the EC50 turned out to be 494 nM and the “EC50 fold change from hB6H12.3” value worked out at 194 fold.

B3: Coil 10 light chain peptide for CD studies (VelA L24A) (peptide)
peptide: QGASTTVAQLEEKVKTLRAENYEAKSEVQRLEEQVAQLGSIPVS
notes: also called Coil 10 (L24A); L24A VelA variant
Regarding B3, the “Tm (melting temperature of the light chain homodimer)” value in data set [3] is “Tm=<20 °C”. Further, in [4], the “Tm (melting temperature of the heterodimer)” value was 28.6 ° C.

B4: Vel light chain peptide for CD studies (VelA) (peptide)
peptide: QGASTTVAQLEEKVKTLRAENYELKSEVQRLEEQVAQLGSIPVS
notes: also called VelA (light chain) peptide; VelA1
Turning to B4, the “Tm (melting temperature of the light chain homodimer)” value in data set [3] is “Tm=35.7 °C”. Also, the “Tm (melting temperature of the heterodimer)” value in [5] is 57.6 ° C.

As to QGASTTVAQLEEKVKTLRAENYEAKSELQRLEEQVAQLGSIPVS (also called Coil 148 (L24A/V28L)) [Coil 148 light chain peptide for CD studies (VelA L24A/V28L)], the “Tm (melting temperature of the light chain homodimer)” value in [3] is “Tm=<20 °C”. Further, the “Tm (melting temperature of the heterodimer)” value in data set [6] was found to be 39.7 ° C.

B5: Vel-IPV-Ab1 Coil 126 (antibody, part only; not given: Ab1 heavy and light chains, part only)
heavy, part: QGASTSVDELQAEVDQLEDENYAYKTKVAQLRKKVEKLGSIPVSLRSG
light, part: QGASTTVAQLEEKVKTLRAENYESKSEVQRLEEQVAQLGSIPVSLRSG
As for B5, in [7], the Binding Bmax (OD450) is 0.7 OD450, the EC50 was found to be 111 nM and the EC50 fold change from Ab1 is 444 fold. In [8], this molecule registered an EC50 of 9.5 nM and an EC50 fold change from Ab1 of 68 fold.

B6: Vel-IPV-hB6H12.3 Coil 149 (antibody, part only; not given: hB6H12.3 heavy and light chains, part only)
heavy, part: QGASTSVDELQAEVDQLEDENYAIKTKIAQLRKKVEKLGSIPVSLRSG
light, part: QGASTTVAQLEEKVKTLRAENYEAKSEVQRLEEQVAQLGSIPVSLRSG
Regarding B6, in data set [9], the Binding Bmax (OD450) was found to be 1.7 OD450, the EC50 turned out to be 298 nM and the EC50 fold change from hB6H12.3 was 117 fold.

B7: Vel-IPV-Ab1 Coil 129 (antibody, part only; not given: Ab1 heavy and light chains, part only)
heavy, part: QGASTSVDELQAEVDQLEDENYASKTKVAQLRKKVEKLGSIPVSLRSG
light, part: QGASTTVAQLEEKVKTLRAENYEYKSEVQRLEEQVAQLGSIPVSLRSG
In the case of B7, in data set [7], the Binding Bmax (OD450) came to 0.6 OD450, the EC50 is 76.6 nM and the EC50 fold change from Ab1 amounted to 306 fold. Further, in [8], the EC50 is 2.6 nM and the EC50 fold change from Ab1 is 19 fold.

B8: Vel-IPV-hB6H12.3 Coil 164 (antibody, part only; not given: hB6H12.3 heavy and light chains, part only)
heavy, part: QGASTSVDELQAEVDQLEDENYASKTKVAQQRKKVEKLGSIPVSLRSG
light, part: QGASTTVAQLEEKVKTLRAENYERKSEVQRVEEQVAQLGSIPVSLRSG
B8: in data set [9], the Binding Bmax (OD450) turned out to be 1.5 OD450, the EC50 is 21.5 nM and the EC50 fold change from hB6H12.3 was determined as 8 fold.

B9: Vel-IPV-hB6H12.3 Coil 152 (antibody, part only; not given: hB6H12.3 heavy and light chains, part only)
heavy, part: QGASTSVDELQAEVDQLEDENYAHKTKVAQLRKKVEKLGSIPVSLRSG
light, part: QGASTTVAQLEEKVKTLRAENYELKSEAQREEEQVAQLGSIPVSLRSG
As to B9, in data set [9], the Binding Bmax (OD450) turned out to be 1.5 OD450, the EC50 is 31.7 nM and the EC50 fold change from hB6H12.3 is 12 fold.

Take QGASTSVDELQAEVDQLEDENYAIKTKLAQLRKKVEKLGSIPVS [Coil 148 heavy chain peptide for CD studies (VelB L24I/V28L)]: the “Tm (melting temperature of the heavy chain homodimer)” value in [3] was “Tm=40.8 °C”.

For the molecule QGASTSVDELQAEVDQLEDENYAIKTKVAQLRKKVEKLGSIPVS [Coil 10 heavy chain peptide for CD studies (VelB L24I)], the “Tm (melting temperature of the heavy chain homodimer)” value in [3] was “Tm=21.0 °C”.

QGASTSVDELQAEVDQLEDENYALKTKVAQLRKKVEKLGSIPVS [Vel heavy chain peptide for CD studies (VelB)]: the “Tm (melting temperature of the heavy chain homodimer)” value in data set [3] was “Tm=23.3 °C”.

The EC50 is the midpoint of the concentration-response curve.
